Reference: patent US11370846B2, “Compositions and methods to regulate Renalase in the treatment of cancer” (Yale University, priority 2014, dated 2022)
Like-named read-outs stand apart in the source and are kept apart here.

What was measured:
[1] = system: renalase-1 and renalase-2; test: Renalase isoform specificity of anti-renalase antibodies; format: binding, human; details: renalase-1 vs renalase-2
Procedure: Peptides were used as immunogens. The peptides generated ranged from 9 to 21 amino acids and corresponded to regions of the renalase-1 and renalase-2 proteins. […] Each peptide was conjugated to the adjuvant KLH via the cysteine and used to immunize 6 rabbits. Antiserum collected from each animal was screened for anti-renalase antibody titer by ELISA assay using both the relevant peptide (BSA-conjugate) or full length renalase-1 or 2. The antisera were also tested for their ability to detect endogenous renalase in tissue lysates by western blot. Using these screening criteria the animals producing antibodies with the preferred characteristics were selected. In some examples and for some peptides, several animals produced antibodies with the required specificity. […] Polyclonal antibodies raised against all of the peptides were generated by purification of total IgG from terminal bleeds by protein G chromatography followed by further purification on peptide affinity chromatography. Further and using standard procedures, lymphocytes from the spleens of selected animals were fused to myeloma cells for hybridoma generation. The hybridoma supernatants were screened for binding to both the peptides against which they were raised and secondarily screened against whole renalase protein. Selected hybridomas were sub-cloned and expanded for antibody purification. The monoclonal antibodies were purified from conditioned hybridoma culture supernatant by protein A affinity chromatography.

PDACC = PDACC growth with anti-RNLS antibodies, WST-1; format: cell-based, human; details: 72 hrs
Procedure: FIG. 25A through FIG. 25E are a series of charts and images showing that inhibition of RNLS signaling is cytotoxic to cancer cells in vitro and in vivo. FIG. 25A is a chart showing relative cell viability following transient transfection of Panc1 cells using a RNLS-specific siRNA, or a non-specific control siRNA, and cell viability assayed 96 h later using the WST-1 reagent; n=6, ** indicates p<0.001. FIG. 25B is a chart showing relative cell viability when cells were treated with indicated antibodies for 72 hrs and cell viability determined using WST-1; m28-RNLS and m37-RNLS: monoclonal antibodies raised against RNLS peptide RP220, ab31291: Abcam polyclonal antibody raised against a partial sequence of RP-220; n=6, * indicates p<0.005. […] FIG. 25D is a chart showing tumor volume increase after athymic nude mice received subcutaneous injection of Panc1 cells transduced with RNLS shRNA (sh-RNLS) or control (sh-Control); tumor volume measured every […] for up to 30 days, n=6 each; * indicates p<0.05. FIG. 25E is chart showing tumor volume increase after nude mice were xenografted with BxPC3; tumor volume measured prior to treatment every 3-4 days with 2 mg/kg of either rabbit IgG as a negative control or with m28-RNLS, n=10, * indicates p<0.05.

melanoma cells = test: Melanoma cell lines in culture, viability/growth; format: cell-based, human
Procedure: FIG. 19A through FIG. 19D are a series of images and charts showing that inhibition of RNLS signaling is cytotoxic to melanoma cells in vitro. […] FIG. 19B comprises two charts depicting relative cell viability: Left panel: Cells were treated with indicated antibodies for 72 hrs and cell viability was determined using WST-1; m28-RNLS (also known as 1D-28-4), m37-RNLS (also known as 1D-37-10): monoclonal antibodies raised against RNLS peptide RP220; Right panel: A375.S2 cells treated with increasing doses of m28-RNLS for 72 hrs and cell viability determined with a WST-1 assay; n=6, * indicates p<0.05 and ** indicates p<0.005. FIG. 19C comprises representative photos of A375.S2, SkMe128, and SkMe15 after 72 hrs incubation with either control rabbit IgG or m28-RNLS. FIG. 19D is a chart depicting relative cell viability, comprising amino acid (AA) sequence of RNLS peptide antagonist (RP220A).
For additional studies, cell viability was determined using WST-1 reagent (Roche Diagnostics, Indianapolis, Ind., USA) according to the manufacturers' instruction. Absorbances were read using a microplate reader (Power Waves XS, BioTek Instruments, Winooski, Vt., USA).

| Molecule | renalase isoform specificity [1] | PDACC growth (PDACC) | melanoma cell growth/viability in culture (melanoma cells) | melanoma cell growth/viability in culture (melanoma cells; listed as D-37-10) | melanoma cell growth/viability in culture (melanoma cells; listed as m37-RNLS) |
| --- | --- | --- | --- | --- | --- |
| 3A-5-2: anti-renalase monoclonal specific for renalase-2 (antigen 3A); heavy chain SEQ ID NO:41, light chain SEQ ID NO:42 (antibody, oryctolagus cuniculus) heavy: METGLRWLLLVAVLKGVQCQSLEESGGRLVTPGTPLTLTCTVSGFSLNNYHIYWVRQAPGKGLEYIGIIFNGGTYYARWTKGRFTISKTSTTVDLKMTSLTTEDTATYFCARGDGIWGPGTLVTVSLGQPKAPSVFPLAPCCGDTPSSTVTLGCLVKGYLPEPVTVTWNSGTLTNGVRTFPSVRQSSGLYSLSSVVSVTSSSQPVTCNVAHPATNTKVDKTVAPSTCSKPTCPPPELLGGPSVFIFPPKPKDTLMISRTPEVTCVVVDVSQDDPEVQFTWYINNEQVRTARPPLREQQFNSTIRVVSTLPIAHQDWLRGKEFKCKVHNKALPAPIEKTISKARGQPLEPKVYTMGPPREELSSRSVSLTCMINGFYPSDISVEWEKNGKAEDNYKTTPAVLDSDGSYFLYSKLSVPTSEWQRGDVFTCSVMHEALHNHYTQKSISRSPGK light: MDTRAPTQLLGLLLLWLPGATFAQVLTQTPASVSAAVGGTVTINCQASQSVFNNNYLAWYQQKPGQPPKRLIYSASTLASGVSSRFKGSGSGTEFTLTMSGVECDDAATYYCAGSFDCNSGDCVAFGGGTEVVVKGDPVAPTVLIFPPAADQVATGTVTIVCVANKYFPDVTVTWEVDGTTQTTGIENSKTPQNSADCTYNLSSTLTLTSTQYNSHKEYTCKVTQGTTSVVQSFNRGDC | specific for renalase-2 |  |  |  |  |
| 1D-37-10: rabbit anti-renalase monoclonal raised against peptide RP-220 (antigen 1D); heavy chain SEQ ID NO:17, light chain SEQ ID NO:18 (antibody, oryctolagus cuniculus) heavy: METGLRWLLLVAVLKGVQCQSVEESGGRLVTPGGSLTLTCTVSGFSLSDYAIIWVRQAPGKGLEYIAIIGSSGDTFYATWAKGRFTISKTSTTVDLKMTSLTAADTATYFCAPRYAGTTDYHDAFDPWGPGTLVTVSSGQPKAPSVFPLAPCCGDTPSSTVTLGCLVKGYLPEPVTVTWNSGTLTNGVRTFPSVRQSSGLYSLSSVVSVTSSSQPVTCNVAHPATNTKVDKTVAPSTCSKPTCPPPELLGGPSVFIFPPKPKDTLMISRTPEVTCVVVDVSQDDPEVQFTWYINNEQVRTARPPLREQQFNSTIRVVSTLPIAHQDWLRGKEFKCKVHNKALPAPIEKTISKARGQPLEPKVYTMGPPREELSSRSVSLTCMINGFYPSDISVEWEKNGKAEDNYKTTPAVLDSDGSYFLYSKLSVPTSEWQRGDVFTCSVMHEALHNHYTQKSISRSPGK light: MDTRAPTQLLGLLLLWLPGARCAEVVMTQTPASMEAPMGGTVTIKCQASQNIYNYLSWYQQKPGQPPKLLVYKASTLTSGVPSRFKGSGSGTQFTLTISDLECADAATYYCQINYSIYNHYNIIFGGGTEVVVKGDPVAPTVLIFPPSADLVATGTVTIVCVANKYFPDVTVTWEVDGTTQTTGIENSKTPQNSADCTYNLSSTLTLTSTQYNSHKEYTCKVTQGTTSVVQSFNRGDC | recognize renalase-1 and renalase-2 | inhibitory effects | inhibit melanoma cells in culture | inhibit melanoma cell growth | decreased the viability of all (total of 5) melanoma cell lines tested |
| 1F-26-1: anti-renalase monoclonal specific for renalase-1 (antigen 1F); heavy chain SEQ ID NO:25, light chain SEQ ID NO:26 (antibody, oryctolagus cuniculus) heavy: METGLRWLLLVAVLKGVQCQSVKESEGGLFKPTDTLTLTCTVSGFSLSSYGVTWVRQAPGNGLEWIGLIGDRGTTFYASWAKSRSTITRNTNLNTVTLKMTRLTAADTATYFCARGSGYGARIWGPGTLVTVSSWQPKAPSVFPLAPCCGDTPSSTVTLGCLVKGYLPEPVTVTWNSGTLTNGVRTFPSVRQSSGLYSLSSVVSVTSSSQPVTCNVAHPATNTKVDKTVAPSTCSKPTCPPPELLGGPSVFIFPPKPKDTLMISRTPEVTCVVVDVSQDDPEVQFTWYINNEQVRTARPPLREQQFNSTIRVVSTLPIAHQDWLRGKEFKCKVHNKALPAPIEKTISKARGQPLEPKVYTMGPPREELSSRSVSLTCMINGFYPSDISVEWEKNGKAEDNYKTTPAVLDSDGSYFLYSKLSVPTSEWQRGDVFTCSVMHEALHNHYTQKSISRSPGK light: MDTRAPTQLLGLLLLWLPGATFAQVLTQTPSPVSAAVGGTVTINCQSSQSVYKNNYLAWYQQKPGQPPKLLIYETSKLASGVPPRFSGSGSGTQFTLTISSVQCDDAATYYCQGGYSGVDFMAFGGGTEVVVKGDPVAPTVLIFPPSADLVATGTVTIVCVANKYFPDVTVTWEVDGTTQTTGIENSKTPQNSADCTYNLSSTLTLTSTQYNSHKEYTCKVTQGTTSVVQSFNRGDC | specific for renalase-1 |  |  |  |  |
| 1F-42-7: anti-renalase monoclonal specific for renalase-1 (antigen 1F); heavy chain SEQ ID NO:33, light chain SEQ ID NO:34 (antibody, oryctolagus cuniculus) heavy: METGLRWLLLVAVLKGVQCQSVKESEGGLFKPTDTLTLTCTVSGFSLTTYGVTWVRQAPGNGLEWIGLIGDRGTTYYASWVNGRSTITRNTNLNTVTLKMTRLTAADTATYFCARGSGYGARIWGPGTLVTVASWQPKAPSVFPLAPCCGDTPSSTVTLGCLVKGYLPEPVTVTWNSGTLTNGVRTFPSVRQSSGLYSLSSVVSVTSSSQPVTCNVAHPATNTKVDKTVAPSTCSKPTCPPPELLGGPSVFIFPPKPKDTLMISRTPEVTCVVVDVSQDDPEVQFTWYINNEQVRTARPPLREQQFNSTIRVVSTLPIAHQDWLRGKEFKCKVHNKALPAPIEKTISKARGQPLEPKVYTMGPPREELSSRSVSLTCMINGFYPSDISVEWEKNGKAEDNYKTTPAVLDSDGSYFLYSKLSVPTSEWQRGDVFTCSVMHEALHNHYTQKSISRSPGK light: MDTRAPTQLLGLLLLWLPGATFAQVLTQTPSPMSAALGGTVTINCQSSQTVYNNNYLSWYQQKPGQPPKLLIYETSKLSSGVPPRFSGSGSGTQFTLTISSVQCDDAATYYCQGGYSGVDFMAFGGGTEVVVKGDPVAPTVLIFPPSADLVATGTVTIVCVANKYFPDVTVTWEVDGTTQTTGIENSKTPQNSADCTYNLSSTLTLTSTQYNSHKEYTCKVTQGTTSVVQSFNRGDC | specific for renalase-1 |  |  |  |  |
